Literature values, collected in PMC2846785.

System: Cys

In the case of “Arylamine N-acetyltransferase 2 (hamster NAT2) (Mesocricetus auratus (Syrian hamster))”, the pKa is given as 5.23 ± 0.03.
